Numbering of substitutions follows the chain as printed.
T1: GFP-9S library array, motif 4 ND N98T;D124L (synthetic construct, N98T;D124L)
T1 chain: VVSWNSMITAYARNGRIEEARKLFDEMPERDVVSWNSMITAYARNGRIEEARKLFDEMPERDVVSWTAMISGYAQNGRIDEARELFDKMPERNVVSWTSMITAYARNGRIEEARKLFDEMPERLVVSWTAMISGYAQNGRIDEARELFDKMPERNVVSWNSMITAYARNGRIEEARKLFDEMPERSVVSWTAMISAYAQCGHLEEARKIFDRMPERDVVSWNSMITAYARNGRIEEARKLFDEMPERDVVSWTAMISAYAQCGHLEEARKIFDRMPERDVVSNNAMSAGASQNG

T2: GFP-9S library array, motif 4 ND D124S (synthetic construct, D124S)
T2 chain: T1 chain with T98N, L124S

T3: GFP-9S library array, motif 4 ND N98Y;D124E (synthetic construct, N98Y;D124E)
T3 chain: T1 chain with T98Y, L124E

T4: GFP-9S library array, motif 4 ND N98T;D124S (synthetic construct, N98T;D124S)
T4 chain: T1 chain with L124S

T5: GFP-9S library array, motif 4 ND N98S;D124P (synthetic construct, N98S;D124P)
T5 chain: T1 chain with T98S, L124P


What was measured:
Test in all cases: high-throughput RNA pulldown from lysate on Ni-NTA beads; HRP: 50 mM Tris pH 8, 150 mM NaCl, 1 mM beta-mercaptoethanol, 50 ug/ml BSA, 3 ug/ml yeast RNA, 0.5% heparin; ITC and FP: Tris pH 8, 200 mM KCl, 5% glycerol; MST: 50 mM Tris pH 8, 200 mM NaCl, 1 mM DTT, BSA, heparin, 0.05% Tween 20
Conditions in all cases: tags: N-terminal His-eGFP
[1] = target: T1, GFP-9S library array, motif 4 ND …
[2] = target: T2, GFP-9S library array, motif 4 ND D124S
[3] = target: T3, GFP-9S library array, motif 4 ND …
[4] = target: T4, GFP-9S library array, motif 4 ND …
[5] = target: T5, GFP-9S library array, motif 4 ND …

Binder | Kd ([1]; label: 5' IRDye 800CW) | Kd ([2]; label: 5' IRDye 800CW) | Kd ([3]; label: 5' IRDye 800CW) | Kd ([4]; label: 5' IRDye 800CW) | Kd ([5]; label: 5' IRDye 800CW) | Kd ([1]; label: 5' Cy5) | Kd ([2]; label: 5' Cy5) | Kd ([3]; label: 5' Cy5) | Kd ([4]; label: 5' Cy5) | Kd ([5]; label: 5' Cy5)
AUUAUACGUGA (ssRNA) [IR-rpoA-U] | 174 nM | 5.07 nM | 286 nM | 48.8 nM | 253 nM | – | – | – | – | –
AUUACACGUGA (ssRNA) [Cy5-rpoA] | – | – | – | – | – | 120 nM | 2.01 nM | 128 nM | 37 nM | 122 nM
AUUAGACGUGA (ssRNA) [Cy5-rpoA-G] | – | – | – | – | – | 120 nM | 522 nM | 169 nM | 65.5 nM | 121 nM
AUUAAACGUGA (ssRNA) [IR-rpoA-A] | 169 nM | 162 nM | 488 nM | 18.4 nM | 224 nM | – | – | – | – | –

Source: PMC8809517, “Cofactor-independent RNA editing by a synthetic S-type PPR protein”
